Experimental data reported in patent US20260125446A1 (Eli Lilly, published 2026).
Like-named read-outs stand apart in the source and are kept apart here.

T1: human RXFP1 receptor (human, UniProt Q9HBX9 1-757)
T1 sequence: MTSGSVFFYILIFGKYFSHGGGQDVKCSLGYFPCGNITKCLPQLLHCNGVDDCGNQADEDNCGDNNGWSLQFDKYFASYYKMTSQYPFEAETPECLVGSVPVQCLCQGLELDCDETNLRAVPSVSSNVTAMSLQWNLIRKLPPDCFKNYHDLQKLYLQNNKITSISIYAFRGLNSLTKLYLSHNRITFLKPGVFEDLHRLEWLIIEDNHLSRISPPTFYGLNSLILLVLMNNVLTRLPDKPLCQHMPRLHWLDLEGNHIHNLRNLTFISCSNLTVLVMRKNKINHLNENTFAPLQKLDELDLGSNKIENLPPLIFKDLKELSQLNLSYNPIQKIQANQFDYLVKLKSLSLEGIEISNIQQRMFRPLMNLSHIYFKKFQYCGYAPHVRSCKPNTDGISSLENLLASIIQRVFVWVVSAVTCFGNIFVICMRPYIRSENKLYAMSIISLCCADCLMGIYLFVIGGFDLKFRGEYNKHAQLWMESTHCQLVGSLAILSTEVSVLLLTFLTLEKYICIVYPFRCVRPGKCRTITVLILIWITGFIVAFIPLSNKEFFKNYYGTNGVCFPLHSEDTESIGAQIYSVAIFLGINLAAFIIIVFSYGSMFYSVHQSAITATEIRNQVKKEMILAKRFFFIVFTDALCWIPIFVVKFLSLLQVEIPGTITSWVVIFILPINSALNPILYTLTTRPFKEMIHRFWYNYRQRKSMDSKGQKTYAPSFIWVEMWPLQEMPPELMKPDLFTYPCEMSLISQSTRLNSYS

B1: RLN Analog 10 (other)
chain: SWMEEVIKLCGRELVRAQIAICGMSTWSGGGSGGSGGGQLYSALANKCCHVGCTKRSLARFCPGPQPGPQPGPQPGPQPGPQPGPQPGPQPGPQEVQLLESGGGLVQPGGSLRLSCAASGRYIDETAVAWFRQAPGKGREFVAGIGGGVDITYYADSVKGRFTISRDNSKNTLYLQMNSLRPEDTAVYYCAARPGRPLITSKVADLYPYWGQGTLVTVSSPP
notes: Single-chain fusion: RLN2 B chain (desB1) - L2 - RLN2 A chain - (PGPQ)8 L1 - VHH (C-terminal)
B2: RLN Analog 13 (other)
chain: EVQLLESGGGLVQPGGSLRLSCAASGRYIDETAVAWFRQAPGKGREFVAGIGGGVDITYYADSVKGRFTISRDNSKNTLYLQMNSLRPEDTAVYYCAARPGRPLITSKVADLYPYWGQGTLVTVSSGGGGQGGGGQGGGGQGGGGQGGGGQALANKCCHVGCTKRSLARFCGGGSGGSGGGSWMEEVIKLCGRELVRAQIAICGMSTWS
notes: Single-chain fusion: VHH - (G4Q)5 L1 - RLN2 A chain (desA1-4) - L2 - RLN2 B chain (desB1)

Columns and labels:
rabbit serum albumin = biological target: T2, rabbit serum albumin (rabbit, UniProt P49065 25-608); assay: SPR (Biacore 8K), albumin immobilized on CM5 chip, 25 C
T2 construct: Bought protein, immobilized on a CM5 chip by amine coupling; also called Rabbit SA
Experimental: (§1) The immobilization of the serum albumin to a Series S Sensor Chip CM5 surface is performed according to the manufacturer's instructions (Amine Coupling Kit BR-1000-50). Briefly, carboxyl groups on the sensor chip surfaces (flow cell 1 and 2) are activated by injecting 70 μL of a mixture containing 75 mg/mL EDC and 11.5 mg/mL NHS at 10 μL/min. Human, cynomolgus monkey, mouse, rat, pig, dog, cow and rabbit serum albumin are diluted in 10 mM sodium acetate pH 4.0 (BR-1003-49) at […] and then injected over the activated chip surfaces (flow cell 2, channel 1 to 8) at 10 μL/min for 180 sec (human, mouse, rat, pig and cow serum albumin are obtained from Sigma Aldrich (St. Louis, MO); cynomolgus monkey serum albumin is obtained from Hölzel Diagnostika (Cologne, Germany); dog serum albumin is obtained from Molecular Innovations (Novi, MI); and rabbit serum albumin is obtained from Fitzgerald Industries Intl. (Acton, MA). The various serum albumins are covalently immobilized through free amines onto a carboxymethyl dextran-coated sensor chip CM5 targeting a surface density of about 100 (62-145) RU. Excess reactive groups on the surfaces (flow cell 1 and 2) are deactivated by injecting 70 μL of 1 M ETA HCl—NaOH pH 8.5.
(§2) 150 μl of sample is individually injecting sequentially across the immobilized serum albumins on the chip's surface and dissociating for 600 sec at 50 μL/min flow rate at 25° C. The surface is regenerated by injecting 10 mM glycine-HCl pH 1.5 (BR-1003-54) at 50 μL/min for 100 sec. The resulting sensorgrams are analyzed using Biacore 8K Insight Evaluation Software (version 2.0.15.12933) 1:1 binding kinetics model fitting to calculate the binding kinetic parameter association rate (ka), dissociation rate (kd), and equilibrium dissociation constant (KD).

dog serum albumin = biological target: T3, dog serum albumin (dog, UniProt P49822 25-608); assay: SPR (Biacore 8K), albumin immobilized on CM5 chip, 25 C, 1:1 kinetic fit
T3 construct: Bought protein, immobilized on a CM5 chip by amine coupling; also called Dog SA
Experimental: as §1, §2

rat serum albumin = biological target: T4, rat serum albumin (rat, UniProt P02770 25-608); assay: as above
T4 construct: Bought protein, immobilized on a CM5 chip by amine coupling; also called Rat SA
Experimental: as §1, §2

[1] = biological target: T5, cynomolgus monkey serum albumin (cynomolgus monkey, UniProt A2V9Z4 25-608); assay: as above
T5 construct: Bought protein, immobilized on a CM5 chip by amine coupling; also called Cyno SA
Experimental: as §1, §2

human serum albumin = biological target: T6, human serum albumin (human, UniProt P02768 25-609); assay: as above
T6 construct: Bought protein, immobilized on a CM5 chip by amine coupling; also called Human SA
Experimental: as §1, §2

mouse serum albumin = biological target: T7, mouse serum albumin (mouse, UniProt P07724 25-608); assay: as above
T7 construct: Bought protein, immobilized on a CM5 chip by amine coupling; also called Mouse SA
Experimental: as §1, §2

pig serum albumin = biological target: T8, pig serum albumin (pig, UniProt P08835 25-607); assay: as above
T8 construct: Bought protein, immobilized on a CM5 chip by amine coupling; also called Pig SA
Experimental: as §1, §2

human RXFP2 receptor = human RXFP2 receptor (human, UniProt Q8WXD0 1-754); assay: cell-based or functional assay
human RXFP1 receptor = biological target: T1, human RXFP1 receptor; assay: cell-based or functional assay
cow serum albumin [2] = biological target: T9, cow serum albumin (cow, UniProt P02769 25-607); assay: SPR (Biacore 8K), albumin immobilized on CM5 chip, 25 C, steady state
T9 construct: Bought protein, immobilized on a CM5 chip by amine coupling; also called Cow SA
Experimental: as §1
150 μl of sample is individually injecting sequentially across the immobilized serum albumins on the chip's surface and dissociating for 600 sec at 50 μL/min flow rate at 25° C. The surface is regenerated by injecting 10 mM glycine-HCl pH 1.5 (BR-1003-54) at 50 μL/min for 100 sec. The resulting sensorgrams are analyzed using Biacore 8K Insight Evaluation Software ([…]).

cow serum albumin [3] = biological target: T9, cow serum albumin; assay: as above; remark: listed apart in the source

| Binder | binding result (rabbit serum albumin) | Kd (dog serum albumin) | koff (dog serum albumin) | kon (dog serum albumin) | Kd (rat serum albumin) | koff (rat serum albumin) | kon (rat serum albumin) | Kd [1] | koff [1] | kon [1] | Kd (human serum albumin) | koff (human serum albumin) | kon (human serum albumin) | Kd (mouse serum albumin) | koff (mouse serum albumin) | kon (mouse serum albumin) | Kd (pig serum albumin) | koff (pig serum albumin) | kon (pig serum albumin) | other results |
| --- | --- | --- | --- | --- | --- | --- | --- | --- | --- | --- | --- | --- | --- | --- | --- | --- | --- | --- | --- | --- |
| B1 | no binding (tested: 1000 nM (highest concentration tested)) | 3.4 nM | 0.0021 s⁻¹ | 630000 M⁻¹ s⁻¹ | 7.8 nM | 0.0049 s⁻¹ | 630000 M⁻¹ s⁻¹ | 1.5 nM | 0.00077 s⁻¹ | 510000 M⁻¹ s⁻¹ | 0.37 nM | 0.0002 s⁻¹ | 550000 M⁻¹ s⁻¹ | 9.7 nM | 0.0072 s⁻¹ | 740000 M⁻¹ s⁻¹ | 20 nM | 0.0096 s⁻¹ | 490000 M⁻¹ s⁻¹ | hRXFP2 EC50 nM GeoMean (cAMP CRE luciferase reporter assay, CHO cells expressing human RXFP2) (human RXFP2 receptor): 32 nM; hRXFP1 EC50 nM GeoMean (cAMP CRE luciferase reporter assay, CHO cells expressing human RXFP1) (human RXFP1 receptor): 14 nM; Kd (cow serum albumin [2]): 100 nM |
| B2 | no binding (tested: 1000 nM (highest concentration tested)) | 0.92 nM | 0.0017 s⁻¹ | 1.9e+06 M⁻¹ s⁻¹ | 2 nM | 0.0033 s⁻¹ | 1.7e+06 M⁻¹ s⁻¹ | 0.49 nM | 0.0007 s⁻¹ | 1.4e+06 M⁻¹ s⁻¹ | 0.14 nM | 0.00019 s⁻¹ | 1.4e+06 M⁻¹ s⁻¹ | 2.6 nM | 0.0048 s⁻¹ | 1.8e+06 M⁻¹ s⁻¹ | 5 nM | 0.006 s⁻¹ | 1.2e+06 M⁻¹ s⁻¹ | Kd (cow serum albumin [3]): 29 nM |
